Experimental data as given in publication PMC5951399.

Target: frataxin, mature form (FXN^81–210) (human) (UniProt Q16595)
Experiment: ITC

Sequence of frataxin, mature form (FXN^81–210) (human) (Q16595 81-210): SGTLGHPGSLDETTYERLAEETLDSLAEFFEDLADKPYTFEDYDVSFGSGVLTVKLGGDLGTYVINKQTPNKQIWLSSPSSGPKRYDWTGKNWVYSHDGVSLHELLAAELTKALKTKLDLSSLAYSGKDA
Sequence of [NFS1]2:[ISD11]2:[Acp]2:[ISCU]2 complex (Q9H1K1 whole entry, looked up): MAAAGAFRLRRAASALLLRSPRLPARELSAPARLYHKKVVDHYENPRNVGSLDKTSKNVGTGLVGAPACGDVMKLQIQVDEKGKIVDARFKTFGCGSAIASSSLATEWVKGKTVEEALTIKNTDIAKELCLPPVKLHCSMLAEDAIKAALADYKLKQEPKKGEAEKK
Sequence of [NFS1]2:[ISD11]2:[Acp]2:[ISCU]2 complex (P0A6A8 whole entry, looked up): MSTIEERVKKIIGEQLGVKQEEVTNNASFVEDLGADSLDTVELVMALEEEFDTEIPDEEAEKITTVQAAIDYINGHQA
Sequence of [NFS1]2:[ISD11]2:[Acp]2:[ISCU]2 complex (Q9HD34 whole entry, looked up): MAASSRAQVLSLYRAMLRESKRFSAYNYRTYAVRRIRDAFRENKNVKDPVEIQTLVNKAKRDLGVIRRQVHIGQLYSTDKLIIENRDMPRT
Sequence of cysteine desulfurase complex [NFS1]2:[ISD11]2:[Acp]2 (P0A6A8 whole entry, looked up): as the sequence (P0A6A8 whole entry, looked up) above
Sequence of cysteine desulfurase complex [NFS1]2:[ISD11]2:[Acp]2 (Q9HD34 whole entry, looked up): as the sequence (Q9HD34 whole entry, looked up) above

Substance “cysteine desulfurase complex [NFS1]2:[ISD11]2:[Acp]2 (from UniProt Q9HD34 1-91; P0A6A8 1-78)” has a Kd of 26.2 µM.
For “[NFS1]2:[ISD11]2:[Acp]2:[ISCU]2 complex (from UniProt Q9HD34 1-91; P0A6A8 1-78; Q9H1K1-1 35-167)”, the Kd was 3 µM.
